Assay results: patent US20220096653A1, “CONJUGATE COMPRISING LIGAND AND CEACAM5 ANTIBODY FAB FRAGMENT” (ASTELLAS PHARMA INC., priority 2019, published 2022)
Read-outs that look alike come from different tables or passages of the source.

Assays:
[1] = target: human cancer-specific MUC1 peptide; experiment: ELISA binding activity of anti-human MUC1 antibody Fab^5 fragment conjugates (Example 6-1)
Protocol: (§1) Each anti-human MUC1 antibody Fab^5 fragment conjugate prepared by the method of Example 5 was subjected to ELISA to evaluate the binding activity thereof to human cancer-specific MUC1. In the present test, 20×PBS/Tween 20 Buffer (Thermo Fisher Scientific Inc., 28352) diluted 20-fold with distilled water was used as a wash liquid. In addition, for bovine serum albumin (BSA) used in the present test, 30% Bovine Serum Albumin solution (Sigma-Aldrich, Inc., A9576-50ML) was added in an appropriate proportion for use. A human cancer-specific MUC1 peptide (PTL 1) at 0.5 μmol/L was added to a Nunc MaxiSorp White 384 plate (Nunc, 460372) at 30 μL per well, and the plate was incubated overnight at 4° C. for immobilization. The MUC1 peptide was removed by reverse centrifugation, and then blocking was carried out by adding a PBS/Tween 20 buffer containing 5.0% BSA. Thereafter, the blocking solution was removed by reverse centrifugation, a solution of each anti-human MUC1 antibody Fab^5 fragment conjugate (Ex-No. 104, 108, or 112) described above at about 10000 ng/mL was diluted in 14 steps by 3-fold dilution using a PBS/Tween 20 buffer containing 1.0% BSA, and 30 μL was added per well and incubated at room temperature for 60 minutes. The plate was washed 3 times with a PBS/Tween 20 buffer, and Horseradish Peroxidase-labeled goat anti-human IgK antibody (Southern Biotechnology Associates, Inc.) diluted 10000-fold using a PBS/Tween 20 buffer containing 5.0% BSA was added at 30 μL per well and incubated at room temperature for 30 minutes. The plate was washed 3 times with a PBS/Tween 20 buffer, and ECL Prime Western Blotting DETECTION Reagent (GE Healthcare, RPN2232) as a substrate was added at 30 μL per well. The substrate was incubated at room temperature for 15 minutes, and then a signal value thereof was measured using an Envision counter (PerkinElmer, Inc.).
(§2) The test for each antibody was carried out in duplicate, and the EC50 value was calculated using a 4-parameter logistic curve model.

[2] = target: human cancer-specific MUC1 peptide (Homo sapiens, UniProt P15941); experiment: ELISA binding activity of anti-human MUC1 antibody Fab^5 fragment conjugates (Example 6-2)
Chain of human cancer-specific MUC1 peptide (Homo sapiens, UniProt P15941) (P15941 136-155): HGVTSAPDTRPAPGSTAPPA
Protocol: as §1, with “101-113)” for “104, 108, or 112)”
as §2

[3] = set-up: species or system mice (BALB/c nu/nu); settings: mouse, in vivo
Protocol: A Gd-labeled conjugate of the conjugate containing a peptide linker produced in one of the above Examples was administered from the tail vein of the tumor-bearing mice so that the protein mass was 0.02 mg (100 μL) per animal. As the tumor-bearing mice used in the present Example, mice (BALB/c nu/nu) that were in a tumor-bearing state brought about by transplanting human breast cancer cell line MDA-MB-468 (ATCC(registered trademark); HTB-132) at 5.0×10^6 cells/mouse subcutaneously on the back before administration of the sample were used. 24 hours after administration of the sample, the mice were sacrificed, the kidneys and the tumor were removed, and the amounts of Gd in the kidneys and in the tumor were measured using ICP-MS. The present test was carried out in 3 cases in each group, and the mean value of the 3 cases was calculated. The amount of Gd contained per kidney after administration was shown as a percentage of the amount of Gd administered (% of dose/tissue), and the amount of Gd contained per g of tumor tissue was shown as a percentage of the total amount of Gd administered (% of dose/g).

[4] = set-up: species or system mice (BALB/c or BALB/c nu/nu); settings: mouse, in vivo
Protocol: A Gd-labeled conjugate of the conjugate containing a peptide linker produced in one of the above Examples was administered from the tail vein of mice (BALB/c or BALB/c nu/nu) so that the protein mass was 0.02 mg (100 μL) per animal. After about 24 hours, the mice were sacrificed and the kidneys were removed, and the amount of Gd in the kidneys was measured using ICP-MS. The present test was carried out in 3 cases in each group, the mean value of the 3 cases was calculated, and the amount of Gd contained per kidney after administration was shown as a percentage (% of dose/tissue) of the total amount of Gd administered.
Based on the amount of Gd contained in the kidneys of the control conjugate, the proportion of decrease in the amount of Gd contained in the kidneys of each of the conjugates having a peptide linker was determined.

[5] = target: human cancer-specific MUC1 peptide (PTL 1) (human); experiment: ELISA on immobilised human cancer-specific MUC1 peptide, 4-parameter fit, duplicate (Example 6-1)
[6] = target: human cancer-specific MUC1 peptide (PTL 1) (human); experiment: ELISA on immobilised human cancer-specific MUC1 peptide, 4-parameter fit, duplicate (Example 6-2)
[7] = each conjugate run in duplicate, Table 54, read-out: EC50

B1: P10-2: anti-human MUC1 antibody Fab fragment disclosed in International Publication WO2018/092885; heavy chain fragment SEQ ID NO: 8, light chain SEQ ID NO: 10 (antibody)
heavy: QVQLVQSGAEVKKPGASVKVSCKASGYTFTNYGLSWVRQAPGQGLEWMGENHPGSGIIYHNEKFRGRVTLTADRSTSTAYMELSSLRSEDTAVYYCARSSGTRGFDYWGQGTLVTVSSASTKGPSVFPLAPSSKSTSGGTAALGCLVKDYFPEPVTVSWNSGALTSGVHTFPAVLQSSGLYSLSSVVTVPSSSLGTQTYICNVNHKPSNTKVDKKVEPKSCD
light: DVVMTQTPLSLSVTPGQPASISCRSSQSIVHSNGNTYLEWYLQKPGQSPQLLIYRVSNRFSGVPDRFSGSGSGTDFTLKISRVEAEDVGVYYCFQGSHGPWTFGQGTKLEIKRTVAAPSVFIFPPSDEQLKSGTASVVCLLNNFYPREAKVQWKVDNALQSGNSQESVTEQDSKDSTYSLSSTLTLSKADYEKHKVYACEVTHQGLSSPVTKSFNRGEC
modifications: P10-2 Fab heavy chain fragment; Antibody light chain
What does the source list for B1?
EC50 ([1]; EC50 value for each of 3 runs, Table 51, read-out: EC50 P10-2): 0.06 nM; EC50 ([2]; EC50 value for each of 3 runs, Table 53, read-out: EC50 P10-2): 0.06 nM

B2: [Gd/DOTA-NH—CH2-(1,4-Ph)-NH—C(═O)-Met-Ile-NH—(CH2)2—Z1(#N)]p-Fab^5 (conjugate)
heavy: QVQLVQSGAEVKKPGASVKVSCKASGYTFTNYGLSWVRQAPGQGLEWMGENHPGSGIIYHNEKFRGRVTLTADRSTSTAYMELSSLRSEDTAVYYCARSSGTRGFDYWGQGTLVTVSSASTKGPSVFPLAPSSKSTSGGTAALGCLVKDYFPEPVTVSWNSGALTSGVHTFPAVLQSSGLYSLSSVVTVPSSSLGTQTYICNVNHKPSNTKVDKKVEPKSCD
light: DVVMTQTPLSLSVTPGQPASISCRSSQSIVHSNGNTYLEWYLQKPGQSPQLLIYRVSNRFSGVPDRFSGSGSGTDFTLKISRVEAEDVGVYYCFQGSHGPWTFGQGTKLEIKRTVAAPSVFIFPPSDEQLKSGTASVVCLLNNFYPREAKVQWKVDNALQSGNSQESVTEQDSKDSTYSLSSTLTLSKADYEKHKVYACEVTHQGLSSPVTKSFNRGEC
modifications: non-natural residues
With B2 as the molecule, how does the EC50 [2, 7] read?
Its EC50 is 0.08 nM.

B3: [Gd/DOTA-[2,5-(1,2,3,4-tetrahydroisoquinoline)]-C(═O)-Met-Gly-Lys*-C(═S)—NH-(1,4-Ph)-NH—C(═S)]p-Fab^5 (conjugate)
heavy: QVQLVQSGAEVKKPGASVKVSCKASGYTFTNYGLSWVRQAPGQGLEWMGENHPGSGIIYHNEKFRGRVTLTADRSTSTAYMELSSLRSEDTAVYYCARSSGTRGFDYWGQGTLVTVSSASTKGPSVFPLAPSSKSTSGGTAALGCLVKDYFPEPVTVSWNSGALTSGVHTFPAVLQSSGLYSLSSVVTVPSSSLGTQTYICNVNHKPSNTKVDKKVEPKSCD
light: DVVMTQTPLSLSVTPGQPASISCRSSQSIVHSNGNTYLEWYLQKPGQSPQLLIYRVSNRFSGVPDRFSGSGSGTDFTLKISRVEAEDVGVYYCFQGSHGPWTFGQGTKLEIKRTVAAPSVFIFPPSDEQLKSGTASVVCLLNNFYPREAKVQWKVDNALQSGNSQESVTEQDSKDSTYSLSSTLTLSKADYEKHKVYACEVTHQGLSSPVTKSFNRGEC
modifications: non-natural residues
For B3, which EC50 [2, 7] is on record?
Its EC50 is 0.19 nM.

B4: [Gd/DOTA-NH—CH2-(1,4-Ph)-NH—C(═O)-Met-Ile-NH—(CH2)2-(A-3)]p-Fab^5 (conjugate)
heavy: QVQLVQSGAEVKKPGASVKVSCKASGYTFTNYGLSWVRQAPGQGLEWMGENHPGSGIIYHNEKFRGRVTLTADRSTSTAYMELSSLRSEDTAVYYCARSSGTRGFDYWGQGTLVTVSSASTKGPSVFPLAPSSKSTSGGTAALGCLVKDYFPEPVTVSWNSGALTSGVHTFPAVLQSSGLYSLSSVVTVPSSSLGTQTYICNVNHKPSNTKVDKKVEPKSCD
light: DVVMTQTPLSLSVTPGQPASISCRSSQSIVHSNGNTYLEWYLQKPGQSPQLLIYRVSNRFSGVPDRFSGSGSGTDFTLKISRVEAEDVGVYYCFQGSHGPWTFGQGTKLEIKRTVAAPSVFIFPPSDEQLKSGTASVVCLLNNFYPREAKVQWKVDNALQSGNSQESVTEQDSKDSTYSLSSTLTLSKADYEKHKVYACEVTHQGLSSPVTKSFNRGEC
modifications: non-natural residues
What does the source list for B4?
Renal residual amount (tumor-bearing mice) % of dose/tissue [3]: 4.13 % of dose/tissue; Renal residual amount (tumor-bearing mice) Proportion of decrease [3]: 88.08%; Renal residual amount (normal mice) % of dose/tissue [4]: 2.80 % of dose/tissue; Renal residual amount (normal mice) Proportion of decrease [4]: 91.52%; EC50 ([1]; each conjugate run in duplicate, Table 52, read-out: EC50): 0.15 nM

B5: [Gd/DOTA-NH-CH2-(1,4-Ph)-NH-C(═O)-Met-Ile-NH-(CH2)2-(A-4 and/or A-5)]p-Fab^5 (Fab, V domains shown)
VH: QVQLVQSGAEVKKPGASVKVSCKASGYTFTNYGLSWVRQAPGQGLEWMGENHPGSGIIYHNEKFRGRVTLTADRSTSTAYMELSSLRSEDTAVYYCARSSGTRGFDYWGQGTLVTVSS
VL: DVVMTQTPLSLSVTPGQPASISCRSSQSIVHSNGNTYLEWYLQKPGQSPQLLIYRVSNRFSGVPDRFSGSGSGTDFTLKISRVEAEDVGVYYCFQGSHGPWTFGQGTKLEIKR
modifications: labeling may sit on this chain; sites not stated; labeling portion (MW 1092) on amino groups of the Fab, sites and chain not stated; 1-3 per Fab by MS; Gln 1 pyroglutamic acid as Fab^5 is defined in paragraph 370
Which EC50 [5] does the source give for B5 here?
Its EC50 is 0.08 nM.

B6: [Gd/DOTA-NH-CH2-(1,4-Ph)-NH-C(═O)-Met-Ile-NH-(CH2)2-(A-3)]p-Fab^5 (Fab, V domains shown)
VH: QVQLVQSGAEVKKPGASVKVSCKASGYTFTNYGLSWVRQAPGQGLEWMGENHPGSGIIYHNEKFRGRVTLTADRSTSTAYMELSSLRSEDTAVYYCARSSGTRGFDYWGQGTLVTVSS
VL: DVVMTQTPLSLSVTPGQPASISCRSSQSIVHSNGNTYLEWYLQKPGQSPQLLIYRVSNRFSGVPDRFSGSGSGTDFTLKISRVEAEDVGVYYCFQGSHGPWTFGQGTKLEIKR
modifications: labeling may sit on this chain; sites not stated; labeling portion (MW 1187) on amino groups of the Fab, sites and chain not stated; 1-2 per Fab by MS; Gln 1 pyroglutamic acid as Fab^5 is defined in paragraph 370
With B6 as the molecule, how does the EC50 [5] read?
Its EC50 is 0.15 nM.

B7: Ex-No 108, conjugate of Fab^5 without peptide linker (structure given only as drawing CHEM-US-00165) (Fab, V domains shown)
VH: QVQLVQSGAEVKKPGASVKVSCKASGYTFTNYGLSWVRQAPGQGLEWMGENHPGSGIIYHNEKFRGRVTLTADRSTSTAYMELSSLRSEDTAVYYCARSSGTRGFDYWGQGTLVTVSS
VL: DVVMTQTPLSLSVTPGQPASISCRSSQSIVHSNGNTYLEWYLQKPGQSPQLLIYRVSNRFSGVPDRFSGSGSGTDFTLKISRVEAEDVGVYYCFQGSHGPWTFGQGTKLEIKR
modifications: labeling may sit on this chain; sites not stated; low molecular weight molecule (MW 542) bound to the Fab, sites and chain not stated; 1-3 per Fab by MS; Gln 1 pyroglutamic acid as Fab^5 is defined in paragraph 370
Which EC50 [5] does the source give for B7 here?
Its EC50 is 0.07 nM.

What about the EC50 [6] of the same molecule?
Its EC50 is 0.07 nM.
